Assay results reported in patent US20100297135A1.
pKd: −log10 of the molar value.

Tests used:
[1] = target: human GM-CSF mutant M5 (I101 to V117 replaced by murine sequence) (human); assay: semi-quantitative ELISA; GM-CSF polypeptide coated in 2-fold dilutions (x axis = coating concentration), BD antibody fixed at 310 ng/ml, rabbit anti-rat IgG-HRP, absorbance 450 nm
[2] = target: human GM-CSF mutant M5b (S96 to N110 replaced by murine sequence) (human); assay: as above
[3] = target: wild type human GM-CSF (human) (UniProt P04141); assay: SPR (Biacore), human GM-CSF coated on CM5 chip, antibody injected
Sequence of wild type human GM-CSF (human) (P04141 other isoform, or with tags, fused parts or gaps limits assumed): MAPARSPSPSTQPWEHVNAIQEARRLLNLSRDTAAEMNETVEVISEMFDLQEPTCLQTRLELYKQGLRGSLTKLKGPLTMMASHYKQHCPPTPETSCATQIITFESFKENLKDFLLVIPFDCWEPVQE

Sequence of human GM-CSF mutant M5 (I101 to V117 replaced by murine sequence) (human) (P04141 other isoform, or with tags, fused parts or gaps mutant): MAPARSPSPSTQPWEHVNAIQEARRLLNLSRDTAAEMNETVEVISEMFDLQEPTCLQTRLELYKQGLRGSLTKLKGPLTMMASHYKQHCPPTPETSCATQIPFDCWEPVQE
Sequence of human GM-CSF mutant M5b (S96 to N110 replaced by murine sequence) (human) (P04141 other isoform, or with tags, fused parts or gaps mutant): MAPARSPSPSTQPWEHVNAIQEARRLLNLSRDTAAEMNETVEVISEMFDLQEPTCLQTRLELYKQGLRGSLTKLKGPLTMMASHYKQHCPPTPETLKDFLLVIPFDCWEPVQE

EC50 (read off the curve) [1]: 300 µg/mL
EC50 (read off the curve) [2]: 400 µg/mL
Ka [3]: > 5.2e+09 M⁻¹
pKd [3]: > 9.72
koff [3]: < 1e-05 s⁻¹
kon [3]: 52000 M⁻¹ s⁻¹
Substance: commercially available rat anti-human GM-CSF antibody from BD Biosciences (Cat No. 554501)
